Data as given in patent US20220119534A1 (DRAGONFLY THERAPEUTICS, published 2022).
Numbering of substitutions follows the chain as printed. Names may count otherwise. “And” between values parts separate entries of the source, which are not always exact repeats. Equal entries are not always repeated.

Key:
mFc-hNKG2D [1] = target: T1, mFc-hNKG2D (human, UniProt P26718 73-216); assay: SPR Biacore 8K 37 C; mFc-hNKG2D captured on anti-mFc chip, TriNKET as analyte; kinetics fit
T1 construct: extracellular domain; Made in house (Dragonfly Tx); the order of tag and ECD follows the name mFc-hNKG2D; also called mFc-tagged human NKG2D; not shown: mouse Fc tag
T1 sequence (looked up): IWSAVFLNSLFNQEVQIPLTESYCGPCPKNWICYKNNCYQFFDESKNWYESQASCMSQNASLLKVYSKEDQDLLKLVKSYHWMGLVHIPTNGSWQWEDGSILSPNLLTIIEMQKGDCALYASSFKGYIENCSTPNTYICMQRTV

Human CLEC12A-His [2] = target: T2, Human CLEC12A-His (human, UniProt Q5QGZ9 65-265); assay: SPR Biacore 8K 37 C; TriNKET captured on anti-hFc chip, hCLEC12A-His as analyte; 1:1 fit; control sample, n=2
T2 construct: Recombinant soluble protein made in house (Dragonfly Tx); The hCLEC12A spot of the HuProt array is written under this molecule as well; also called hCLEC12A-His; hCLEC12A; not shown: His tag
T2 sequence: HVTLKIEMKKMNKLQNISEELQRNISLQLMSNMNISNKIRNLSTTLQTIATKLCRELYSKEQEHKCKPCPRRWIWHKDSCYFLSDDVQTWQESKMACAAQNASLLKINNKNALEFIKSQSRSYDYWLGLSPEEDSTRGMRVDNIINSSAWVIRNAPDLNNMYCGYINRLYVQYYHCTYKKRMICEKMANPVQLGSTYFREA

mFc-hNKG2D [3] = target: T1, mFc-hNKG2D; assay: SPR Biacore 8K 37 C; mFc-hNKG2D captured on anti-mFc chip, TriNKET as analyte; steady state fit; after 2 wks 40 C at pH 5.0
Human CLEC12A-His [4] = target: T2, Human CLEC12A-His; assay: SPR Biacore 8K 37 C; TriNKET captured on anti-hFc chip, hCLEC12A-His as analyte; 1:1 fit; after 2 wks 2-8 C in CST pH 7.0, n=2
[5] = target: T3, Human CLEC12A expressed on cells (Ba/F3-hCLEC12A, PL21, HL60) (human, UniProt Q5QGZ9 1-265); assay: cell-based or functional assay
T3 sequence: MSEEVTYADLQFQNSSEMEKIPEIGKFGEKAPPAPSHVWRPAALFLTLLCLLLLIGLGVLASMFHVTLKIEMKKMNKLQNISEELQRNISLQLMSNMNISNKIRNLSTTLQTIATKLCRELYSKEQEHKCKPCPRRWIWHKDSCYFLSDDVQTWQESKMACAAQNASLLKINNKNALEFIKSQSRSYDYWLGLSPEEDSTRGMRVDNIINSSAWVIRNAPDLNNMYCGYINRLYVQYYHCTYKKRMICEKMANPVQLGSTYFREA

[6] = target: T4, mFc-hNKG2D (recombinant mFc-tagged human NKG2D dimer) (human, UniProt P26718 73-216); assay: SPR; after pH 5.0, 40C, 2 wks (n = 2)
T4 construct: extracellular domain; Made in house; not shown: mouse Fc tag
T4 sequence (looked up): T1 sequence (looked up)

[7] = target: T3, Human CLEC12A expressed on cells …; assay: flow cytometry on Ba/F3-hCLEC12A cells
[8] = target: T5, Human CLEC12A-His (recombinant, K244 WT) (human, UniProt Q5QGZ9 65-265); assay: SPR, two-state fit; after pH 8, 40C, 2 wks
T5 construct: Made in house (Dragonfly Tx); also called hCLEC12A; hCLEC12A-His; not shown: His tag
T5 sequence: T2 sequence

[9] = target: T6, recombinant human CLEC12A-His (human, UniProt Q5QGZ9 65-265); assay: SPR 37C
T6 construct: also called hCLEC12A-His; hCLEC12A
T6 sequence: T2 sequence

recombinant human CD64 = target: T7, recombinant human CD64 (human, UniProt P12314 16-288, biotinylated); assay: SPR 25C, kinetic fit, average
T7 construct: also called hFcγRI; hCD64

[10] = target: T8, recombinant human CD32a H131 (human, UniProt P12318 36-218, limits assumed, biotinylated); assay: SPR 25C, steady state, average
T8 construct: also called FcγRIIa H131
T8 sequence (looked up): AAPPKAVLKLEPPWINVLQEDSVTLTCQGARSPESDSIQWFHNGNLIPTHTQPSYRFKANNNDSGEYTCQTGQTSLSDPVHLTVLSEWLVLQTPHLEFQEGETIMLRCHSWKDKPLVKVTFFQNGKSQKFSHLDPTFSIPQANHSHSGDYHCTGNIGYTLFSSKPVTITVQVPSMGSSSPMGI

recombinant human CD32b = target: T9, recombinant human CD32b (human, UniProt P31994 46-217, limits assumed, biotinylated); assay: SPR 25C, steady state, average
T9 construct: also called FcγRIIb
T9 sequence (looked up): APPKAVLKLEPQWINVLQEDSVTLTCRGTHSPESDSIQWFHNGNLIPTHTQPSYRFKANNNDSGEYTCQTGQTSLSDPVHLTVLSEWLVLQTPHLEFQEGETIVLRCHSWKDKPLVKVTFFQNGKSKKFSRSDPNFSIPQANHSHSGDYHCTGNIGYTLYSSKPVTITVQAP

mFc-hNKG2D [11] = target: T10, mFc-hNKG2D (human, UniProt P26718 73-216); assay: SPR; sample after 4 weeks at 40 C in CST pH 7.0
T10 construct: extracellular domain; Recombinant mFc-tagged NKG2D dimer, made in house; also called human NKG2D; not shown: mouse Fc tag
T10 sequence (looked up): T1 sequence (looked up)

Human CD16a V158 = target: T11, Human CD16a V158 (human, UniProt P08637 17-208, biotinylated); assay: SPR; sample after 4 weeks at 40 C in CST pH 7.0
T11 construct: Bought recombinant receptor; also called hCD16a (V158); hFcγRIIIa V158
T11 sequence (P08637 17-208 F176V limits assumed): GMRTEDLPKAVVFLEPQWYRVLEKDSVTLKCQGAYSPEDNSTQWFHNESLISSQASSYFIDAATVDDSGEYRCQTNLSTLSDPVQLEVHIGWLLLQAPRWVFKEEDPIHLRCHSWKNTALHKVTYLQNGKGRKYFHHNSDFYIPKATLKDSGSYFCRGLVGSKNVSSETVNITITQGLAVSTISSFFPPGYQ

T7 sequence (P12314 16-288 limits assumed): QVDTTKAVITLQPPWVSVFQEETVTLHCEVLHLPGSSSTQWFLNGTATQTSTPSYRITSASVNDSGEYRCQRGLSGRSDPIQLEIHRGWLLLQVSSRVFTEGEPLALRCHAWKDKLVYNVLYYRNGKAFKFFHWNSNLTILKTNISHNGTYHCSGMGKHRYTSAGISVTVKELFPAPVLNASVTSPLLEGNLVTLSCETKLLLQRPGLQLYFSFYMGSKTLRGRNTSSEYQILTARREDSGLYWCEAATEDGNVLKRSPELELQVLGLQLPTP

B1: F3'-1602 TriNKET (bispecific antibody, human IgG1, kappa)
chain: QLQLQESGPGLVKPSETLSLTCTVSGFSLTNYGLHWIRQPPGKCLEWIGVIWSGGKTDYNPSLKSRVTISKDTSKNQFSLKLSSVQAADTAVYYCAKYDYDDSLDYWGQGTLVTVSSGGGGSGGGGSGGGGSGGGGSDIQMTQSPSSLSASVGDRVTITCHASQNINFWLSWYQQKPGKAPKLLIYEASNLHTGVPSRFSGSGSGTRFTLTISSLQPEDIATYYCQQSHSYPLTFGCGTKLEIKGSDKTHTCPPCPAPELLGGPSVFLFPPKPKDTLMISRTPEVTCVVVDVSHEDPEVKFNWYVDGVEVHNAKTKPREEQYNSTYRVVSVLTVLHQDWLNGKEYKCKVSNKALPAPIEKTISKAKGQPREPRVYTLPPCRDELTKNQVSLTCLVKGFYPSDIAVEWESNGQPENNYKTTPPVLVSDGSFTLYSKLTVDKSRWQQGNVFSCSVMHEALHNHYTQKSLSLSPG
heavy: EVQLVESGGGLVKPGGSLRLSCAASGFTFSSYSMNWVRQAPGKGLEWVSSISSSSSYIYYADSVKGRFTISRDNAKNSLYLQMNSLRAEDTAVYYCARGAPIGAAAGWFDPWGQGTLVTVSSASTKGPSVFPLAPSSKSTSGGTAALGCLVKDYFPEPVTVSWNSGALTSGVHTFPAVLQSSGLYSLSSVVTVPSSSLGTQTYICNVNHKPSNTKVDKKVEPKSCDKTHTCPPCPAPELLGGPSVFLFPPKPKDTLMISRTPEVTCVVVDVSHEDPEVKFNWYVDGVEVHNAKTKPREEQYNSTYRVVSVLTVLHQDWLNGKEYKCKVSNKALPAPIEKTISKAKGQPREPQVCTLPPSRDELTENQVSLTCLVKGFYPSDIAVEWESNGQPENNYKTTPPVLDSDGSFFLYSWLTVDKSRWQQGNVFSCSVMHEALHNHYTQKSLSLSPG
light: DIQMTQSPSSVSASVGDRVTITCRASQGISSWLAWYQQKPGKAPKLLIYAASSLQSGVPSRFSGSGSGTDFTLTISSLQPEDFATYYCQQGVSFPRTFGGGTKVEIKRTVAAPSVFIFPPSDEQLKSGTASVVCLLNNFYPREAKVQWKVDNALQSGNSQESVTEQDSKDSTYSLSSTLTLSKADYEKHKVYACEVTHQGLSSPVTKSFNRGEC
notes: Trispecific F3' format: CLEC12A scFv-Fc paired with NKG2D Fab-Fc; Stressed and control samples of the stability studies are the same molecule; also called AB0237
- Kd (mFc-hNKG2D [1]): 703 nM and 705 nM and 745 nM and 732 nM
- Kd (Human CLEC12A-His [2]): 1.2 nM
- koff (Human CLEC12A-His [2]): 0.000933 s⁻¹
- kon (Human CLEC12A-His [2]): 779000 M⁻¹ s⁻¹
- Kd (mFc-hNKG2D [3]): 677 nM
- Kd (Human CLEC12A-His [4]): 0.89 nM
- koff (Human CLEC12A-His [4]): 0.0006 s⁻¹
- kon (Human CLEC12A-His [4]): 672000 M⁻¹ s⁻¹

B2: AB0089 TriNKET (bispecific antibody, human IgG1, kappa)
chain: B1 chain with S53V, K56A, K71V, Y98G, D101G, S103T, R207D, I220F
heavy: B1 heavy
light: B1 light
notes: F3' format heterodimer of three chains; human IgG1 Fc with EW-RVT and Y349C/S354C mutations; also called AB0089 Lot AB0089-002; CLEC12A TriNKET AB0089
- EC50, KHYG-1-CD16aV cytotoxicity assay; after pH 5.0, 40C, 2 wks [5]: 0.16 nM
- EC50, KHYG-1-CD16aV cytotoxicity assay; control sample [5]: 0.11 nM
- Kd [6]: 703 nM
- koff [6]: 0.131 s⁻¹
- kon [6]: 187000 M⁻¹ s⁻¹
- EC50 [7]: 4.02 nM
- Kd [8]: 0.9 nM

B3: F3'-1602 TriNKET (other)
chain: B1 chain
heavy: B1 heavy
light: B1 light
notes: CLEC12A scFv-Fc, NKG2D A49MI Fab-Fc, human IgG1 Fc; also called AB0237
- Kd [9]: 0.58 nM and 0.59 nM and 0.57 nM and 0.6 nM
- koff [9]: 0.000494 s⁻¹ and 0.000489 s⁻¹ and 0.000499 s⁻¹
- kon [9]: 854000 M⁻¹ s⁻¹ and 833000 M⁻¹ s⁻¹ and 863000 M⁻¹ s⁻¹ and 826000 M⁻¹ s⁻¹
- Kd (recombinant human CD64): 5.2 nM
- koff (recombinant human CD64): 0.00027 s⁻¹
- kon (recombinant human CD64): 52000 M⁻¹ s⁻¹
- Kd [10]: 900 nM
- Kd (recombinant human CD32b): 6.6 µM

B4: AB0192 TriNKET (other)
chain: EVQLVESGGGVVQPGGSLRLSCAASGFTFNAFGMHWVRQAPGKCLEWVAFISSGSTSIYYANTVKGRFTISRDNSKNTLYLQMNSLRAEDTAVYYCARDGYPTGGAMDYWGQGTSVTVSSGGGGSGGGGSGGGGSGGGGSDIQMTQSPSSLSASVGDRVTITCKASQDIYNYLSWFQQKPGKAPKPLIYRANILVSGVPSRFSGSGSGQDYTFTISSLQPEDIATYYCLQFDAFPFTFGCGTKLEIKGSDKTHTCPPCPAPELLGGPSVFLFPPKPKDTLMISRTPEVTCVVVDVSHEDPEVKFNWYVDGVEVHNAKTKPREEQYNSTYRVVSVLTVLHQDWLNGKEYKCKVSNKALPAPIEKTISKAKGQPREPRVYTLPPCRDELTKNQVSLTCLVKGFYPSDIAVEWESNGQPENNYKTTPPVLVSDGSFTLYSKLTVDKSRWQQGNVFSCSVMHEALHNHYTQKSLSLSPG
heavy: B1 heavy
light: B1 light
notes: the condition stands under assay; also called AB0192 Lot AB0192-005
- Kd (mFc-hNKG2D [11]): 653 nM
- koff (mFc-hNKG2D [11]): 0.121 s⁻¹
- kon (mFc-hNKG2D [11]): 185000 M⁻¹ s⁻¹
- Kd (Human CD16a V158): 174 nM
- koff (Human CD16a V158): 0.0194 s⁻¹
- kon (Human CD16a V158): 111000 M⁻¹ s⁻¹
